Measurements from patent US20200010567A1 (NEURIMMUNE, published 2020).

B1: NI-308.6B11 (antibody, V domains shown)
VH: EVQLVQSGAEVKRPGASVKVSCKVSGYTLTELSMHWVRQAPGKGLEWMGGFDPEDGETVYAQKFQGRVTMTEDTSTDTAYMELSSLRSEDTALYHCATYGSSWHWNEGNEGSYYFDYWGQGTLVTVSS
VL: CDIQMTQSPSSLSASVGDRVTITCQASQDISIYLNWYQQKPGKAPKLLIYDASNLETGVPSRFSGSGSGTDFTFTISGLQPEDVARYYCQQYDDLPITFGQGTRLEIK
notes: Recombinant complete human IgG1, kappa
B2: NI-308.45C2 (antibody, V domains shown)
VH: QLQLQESGPGLVKPSQILSLTCAISGDSVFSNSAAWNWIRQSPSRGLEWLGRTYYRSKWDNDYAPSVKSRISINPDTSKNQFSLQLNSVTPEDTAVYYCAREVAYCGGDCYSVSFDYWGQGTLVTVSS
VL: not shown
notes: as for B1
B3: NI-308.15O7 (antibody, V domains shown)
VH: QVQLVESGGGVVQPGRSLRLSCAASGFTFSNHAMHWVRQAPGKGLEWVAVISYDGENTYYADSIEGRFTISRDNFKNTLFLQMYSLTADDTAMYFCARGGRRGHFTSYYLDYWGQGTLVTVSS
VL: CDIQMTQSPSSLSASVGDRVTITCRASQNIDKYLNWYQQIPGKAPKLLIYAASSLHSGVPSRFSGSGSGTDFSLTISSLQPEDFAIYYCQQSYSSFRTFGQGTKLEIK
B4: NI-308.24E11 (antibody, V domains shown)
VH: QVQLQESGPGLVKPSETLSLTCTVSTTSLRSYFWSWIRQPPGKGLEWIGYVYYSGSTIYNPSLKNRVTISIDTSKNQFSLNLRSVTAADTAMYFCARGVPAETDARDFPPYYFDHWGQGTLVTVSS
VL: CDIQLTQSPSSLSASVGNRITFTCQASQDIRYYLNWYQQKPGKAPKLLIYDVSNLDTGVPPRFSGSGSGTNFTFTISSLQPEDIAVYYCQQYEGLPVTFGGGTKVEIK
notes: as for B1
B5: NI-308.5G2 (antibody, V domains shown)
VH: EVQLVQSGADLRNPGASVTVSCTASGYHFADNAINWLRQAPGQRLEWMGWINIYSGNTKYSQNFQGRVTFTRNTSASTAFMHLRSLRSEDTAVYFCARDPDSSGYYLPYFDYWGQGTLVTVSS
VL: DIQLTQSPDSLTLSLGERATINCKSSQSVFYNSNNKNYLAWYQQKPGQPPKLLMYWASTRESGVTDRFSGSGSGTDFTLTITNLQAEDVAVYYCQQFYSSPLTFGGGTKVEIK
notes: as for B1
B6: NI-308.28G1 (antibody, V domains shown)
VH: QVQLQESGPRLVKPSETLSLTCTVAGGSVNSYYWTWIQQSPGKGLEWLGRIYIAGRTNYNPSLTSRIALSVDTSRNQLSLKLTSVTAADTAIYYCARWGAESGDYYYGVDVWGPGTLVTVSS
VL: EIVMTQSPLSLPVTPGEPASISCKSSEGLLHSNGYTYLDWYLQKPGQAPQLLIFLASNRAAGVPDRFSGSGSGTDFTLKISRVEAEDVGVYYCMQAIQSPWTFGPGTKVEIK
notes: as for B1
B7: NI-308.4M1 (antibody, V domains shown)
VH: EVQLVETGGGVVQPGGSLRLSCEASGFTIGTYAMHWVRQFPGKGLDWVAVISFDGTTEYYTDAVKGRFTISRDNAKNTLYLQMNYLRGDDTAIYFCARDFTSSGETGSWTQVPDLWGQGTLVTVSS
VL: CEIVMTQSPATLSLSPGERATLSCRASQSVTKYLAWYQQKPGQAPRLLIYDVSYRAAGTPARFSGSGSGTDFTLTISSLEPEDFAVYYCHQRSSWPPVTFGGGTKVEIK
notes: as for B1
B8: NI-308.46E9 (antibody, V domains shown)
VH: QVQLQESGPGLVKPSETLSLTCTVSGASISGSTYYWGWIRQPPGKGLEYIGRIYYSGSTYYNPSLKSRATISVDTSKNQLSLTLSSVTAADTAVYYCVRPFYAGSGNSPFDYWGQGTLVTVSS
VL: CEIVLTQSPATVSVSPGERATLSCRASQSVSTNLAWYQQKPGQPPRLLIYGASTRATGIPARFSGSGSGAEFTLTISSLQSEDFVVYYCQQYNNWPPAFGGGTKVEIK
notes: as for B1

biological target: T1, full-length amyloid precursor protein (UniProt P05067 18-770, limits assumed); assay: indirect ELISA, coated protein
T1 construct: also called flAPP
T1 sequence (P05067 18-770 limits assumed): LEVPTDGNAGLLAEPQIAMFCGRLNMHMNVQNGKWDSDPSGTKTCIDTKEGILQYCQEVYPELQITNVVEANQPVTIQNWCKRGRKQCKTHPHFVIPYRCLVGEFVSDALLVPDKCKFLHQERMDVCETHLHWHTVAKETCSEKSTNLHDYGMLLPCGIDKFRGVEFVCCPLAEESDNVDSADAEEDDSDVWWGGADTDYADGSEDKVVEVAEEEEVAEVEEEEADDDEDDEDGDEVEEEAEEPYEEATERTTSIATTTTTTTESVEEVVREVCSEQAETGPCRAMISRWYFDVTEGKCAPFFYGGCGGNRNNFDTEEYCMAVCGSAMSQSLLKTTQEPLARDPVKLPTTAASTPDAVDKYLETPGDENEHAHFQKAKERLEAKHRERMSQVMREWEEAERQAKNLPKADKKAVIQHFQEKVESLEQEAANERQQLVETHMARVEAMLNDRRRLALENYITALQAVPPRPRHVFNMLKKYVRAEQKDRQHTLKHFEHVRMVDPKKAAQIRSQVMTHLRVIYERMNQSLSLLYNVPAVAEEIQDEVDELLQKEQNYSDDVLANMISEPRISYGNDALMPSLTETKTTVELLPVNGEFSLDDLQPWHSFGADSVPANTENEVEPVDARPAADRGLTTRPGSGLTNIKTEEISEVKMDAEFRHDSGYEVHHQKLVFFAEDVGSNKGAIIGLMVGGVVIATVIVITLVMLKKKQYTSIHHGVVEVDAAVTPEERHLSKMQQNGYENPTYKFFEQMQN
Method: (§1) 96-well microplates (Corning) were coated with different target proteins at a concentration of 1-10 μg/ml in coating buffer (15 mM Na₂CO₃, 35 mM NaHCO₃, pH 9.42). Non-specific binding sites were blocked for 1 h at RT with PBS/0.1% Tween®-20 containing 2% BSA (Sigma-Aldrich, Buchs, Switzerland). […] Binding was determined using donkey anti-human IgG Fcγ-specific antibody conjugated with HRP (Jackson ImmunoResearch Laboratories, Inc., West Grove, USA) followed by measurement of HRP activity in a standard colorimetric assay. Signals for target protein were calculated in fold increase above median.

Binder | binding result
B1 | no binding (tested: 20 nM)
B2 | no binding (tested: 20 nM)
B3 | no binding (tested: 20 nM)
B4 | no binding (tested: 20 nM)
B5 | no binding (tested: 20 nM)
B6 | no binding (tested: 20 nM)

biological target: T2, transactive response DNA binding protein 43 (UniProt Q13148 1-414, limits assumed); assay: indirect ELISA, coated protein
T2 construct: also called TDP-43
T2 sequence (Q13148 whole entry): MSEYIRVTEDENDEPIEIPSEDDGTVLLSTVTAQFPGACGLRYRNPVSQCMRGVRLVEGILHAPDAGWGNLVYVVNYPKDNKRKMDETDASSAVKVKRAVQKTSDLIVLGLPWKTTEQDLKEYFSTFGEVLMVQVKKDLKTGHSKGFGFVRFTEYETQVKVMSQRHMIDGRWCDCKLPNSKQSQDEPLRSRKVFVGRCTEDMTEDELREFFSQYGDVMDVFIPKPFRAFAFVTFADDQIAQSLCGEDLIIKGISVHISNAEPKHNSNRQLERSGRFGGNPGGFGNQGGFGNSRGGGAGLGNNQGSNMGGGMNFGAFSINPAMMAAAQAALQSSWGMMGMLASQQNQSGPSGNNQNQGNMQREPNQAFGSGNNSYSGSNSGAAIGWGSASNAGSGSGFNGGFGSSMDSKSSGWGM
Method: as §1

Binder | binding result
B1 | no binding (tested: 20 nM)
B2 | no binding (tested: 20 nM)
B3 | no binding (tested: 20 nM)
B4 | no binding (tested: 20 nM)
B5 | no binding (tested: 20 nM)
B6 | no binding (tested: 20 nM)

biological target: transthyrethin (UniProt P02766 21-147); assay: indirect ELISA, coated protein
Method: as §1

Binder | binding result
B1 | no binding (tested: 20 nM)
B2 | no binding (tested: 20 nM)
B3 | no binding (tested: 20 nM)
B4 | no binding (tested: 20 nM)
B5 | no binding (tested: 20 nM)
B6 | no binding (tested: 20 nM)

biological target: Tau (UniProt P10636-8 1-441, limits assumed); assay: indirect ELISA, coated protein
Sequence (P10636 other isoform, or with tags, fused parts or gaps limits assumed): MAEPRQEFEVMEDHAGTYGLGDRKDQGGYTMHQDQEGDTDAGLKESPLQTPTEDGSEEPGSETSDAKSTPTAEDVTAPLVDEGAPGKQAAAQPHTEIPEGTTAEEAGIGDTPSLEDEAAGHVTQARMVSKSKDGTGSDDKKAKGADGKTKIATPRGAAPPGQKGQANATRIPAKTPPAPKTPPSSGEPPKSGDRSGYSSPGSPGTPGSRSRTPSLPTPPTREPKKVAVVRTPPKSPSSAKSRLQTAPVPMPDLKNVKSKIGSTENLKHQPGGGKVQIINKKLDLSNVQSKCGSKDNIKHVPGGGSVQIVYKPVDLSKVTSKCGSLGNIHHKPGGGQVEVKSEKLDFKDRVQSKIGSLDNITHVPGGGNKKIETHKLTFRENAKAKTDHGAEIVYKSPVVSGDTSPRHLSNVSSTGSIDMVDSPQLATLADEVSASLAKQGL
Method: as §1

Binder | binding result
B1 | no binding (tested: 20 nM)
B2 | no binding (tested: 20 nM)
B3 | no binding (tested: 20 nM)
B4 | no binding (tested: 20 nM)
B5 | no binding (tested: 20 nM)
B6 | no binding (tested: 20 nM)

Biological target: T3, (GR)15: H-C(GR)15-OH
T3 construct: synthetic, not coupled to BSA; also called poly-GR DPR protein peptide
T3 peptide: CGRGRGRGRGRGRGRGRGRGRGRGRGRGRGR
Assay: indirect ELISA, coated peptide
Method: (§2) In brief, dipeptide repeat proteins were synthesized and purified by Schafer-N(Copenhagen, Denmark): (GA)₁₅: H-CHHHHHH(GA)₁₅-OH; (GP)₁₅: H-C(GP)₁₅-OH; (GR)₁₅: H-C(GR)₁₅-OH; (PA)₁₅: H-C(PA)₁₅-OH; (PR)₁₅: H—C(PR)₁₅-OH. 96-well microplates (Corning Incorporated, Corning, USA) were coated with dipeptide repeat protein peptides at a concentration of either 5 μg/ml or 20 μg/ml in coating buffer (15 mM Na₂CO₃, 35 mM NaHCO₃, pH 9.42). Non-specific binding sites were blocked for 1 h at room temperature with PBS/0.1% Tween®-20 containing 2% BSA (Sigma-Aldrich, Buchs, Switzerland). Primary antibodies were diluted to the indicated concentrations and incubated for 1 h at room temperature, followed by incubation with a donkey anti-human IgG Fcγ-specific antibody conjugated with HRP (Jackson ImmunoResearch Laboratories, Inc., West Grove, USA). Binding was determined by measurement of HRP activity in a standard colorimetric assay. EC₅₀ values were estimated by non-linear regression using GraphPad Prism software (San Diego, USA). The binding specificity and EC₅₀ of human-derived antibodies for C9orf72 dipeptide repeat protein peptides (GA)₁₅, (GP)₁₅, (GR)₁₅, (PA)₁₅ and (PR)₁₅ were determined by indirect ELISA.

Binder | binding result
B2 | no binding
B3 | no binding
B4 | no binding
B7 | no binding
B5 | no binding
B8 | no binding
B6 | no binding

Biological target: T4, (PR)15: H-C(PR)15-OH
T4 construct: synthetic, not coupled to BSA; also called poly-PR DPR protein peptide
T4 peptide: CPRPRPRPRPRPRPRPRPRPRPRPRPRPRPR
Assay: indirect ELISA, coated peptide
Method: as §2

Binder | binding result
B2 | no binding
B3 | no binding
B7 | no binding
B5 | no binding
B8 | no binding
B6 | no binding

Biological target: T5, (GP)15: H-C(GP)15-OH
T5 construct: synthetic, not coupled to BSA; also called poly-GP DPR protein peptide
T5 peptide: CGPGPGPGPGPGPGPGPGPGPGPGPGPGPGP
Assay: indirect ELISA, coated peptide
Method: as §2

Binder | binding result
B1 | no binding
B2 | no binding
B3 | no binding
B4 | no binding
B7 | no binding
B6 | no binding

Biological target: T6, (PA)15: H-C(PA)15-OH
T6 construct: synthetic, not coupled to BSA; also called poly-PA DPR protein peptide
T6 peptide: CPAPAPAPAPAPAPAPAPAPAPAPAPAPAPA
Assay: indirect ELISA, coated peptide
Method: as §2

Binder | binding result
B1 | no binding
B2 | no binding
B3 | no binding
B4 | no binding
B5 | no binding
B8 | no binding
B6 | no binding

Biological target: T7, GA20: H-(GA)20HHHHHH-NH2 (C-terminal amide)
T7 peptide: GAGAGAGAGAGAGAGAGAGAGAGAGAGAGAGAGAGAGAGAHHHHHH
Assay: indirect ELISA, coated His-tagged peptide
Description: In brief, dipeptide repeat proteins were synthesized and purified by Schafer-N (Copenhagen, Denmark): GA₂₀: H-(GA)₂₀HHHHHH-NH₂; GA₁₀: H-(GA)₁₀HHHHHH-NH₂; GA₆: H-(GA)₆HHHHHH-NH₂; GA₅: H-(GA)₅HHHHHH-NH₂; GA₄: H-(GA)₄HHHHHH-NH₂; GA₃: H-(GA)₃HHHHHH-NH₂; GA₂: H-(GA)₂HHHHHH-NH₂; GP₂₀: H-(GP)₂₀HHHHHH-NH₂; GP₁₀: H-(GP)₁₀HHHHHH-NH₂; GP₆: H-(GP)₆HHHHHH-NH₂; GP₅: H-(GP)₅HHHHHH-NH₂; GP₄: H-(GP)₄HHHHHH-NH₂; GP₃: H-(GP)₃HHHHHH-NH₂; GP₂: H-(GP)₂HHHHHH-NH₂. GR₂₀: H-(GR)₂₀HHHHHH-NH₂; GR₁₀: H-(GR)₁₀HHHHHH-NH₂; GR₆: H-(GR)₆HHHHHH-NH₂; GR₅: H-(GR)₅HHHHHH-NH₂; GR₄: H-(GR)₄HHHHHH-NH₂; GR₃: H-(GR)₃HHHHHH-NH₂; GR₂: H-(GR)₂HHHHHH-NH₂; PA₂₀: H-(PA)₂₀HHHHHH-NH₂; PA₁₀: H-(PA)₁₀HHHHHH-NH₂; PA₆: H-(PA)₆HHHHHH-NH₂; PA₅: H-(PA)₅HHHHHH-NH₂; PA₄: H-(PA)₄HHHHHH-NH₂; PA₃: H-(PA)₃HHHHHH-NH₂; PA₂: H-(PA)₂HHHHHH-NH₂; PR₂₀: H-(PR)₂₀HHHHHH-NH₂; PR₁₀: H-(PR)₁₀HHHHHH-NH₂; PR₆: H-(PR)₆HHHHHH-NH₂; PR₅: H-(PR)₅HHHHHH-NH₂; PR₄: H-(PR)₄HHHHHH-NH₂; PR₃: H-(PR)₃HHHHHH-NH₂; PR₂: H-(PR)₂HHHHHH-NH₂. 96-well microplates (Corning Incorporated, Corning, USA) were coated with dipeptide repeat protein peptides at a concentration of 50 μg/ml in coating buffer (15 mM Na₂CO₃, 35 mM NaHCO₃, pH 9.42). Non-specific binding sites were blocked for 1 h at room temperature with PBS/0.1% Tween®-20 containing 2% BSA (Sigma-Aldrich, Buchs, Switzerland). Primary antibodies were diluted to the indicated concentrations and incubated 1 h at room temperature, followed by incubation with a donkey anti-human IgG Fcγ-specific antibody conjugated with HRP (Jackson ImmunoResearch Laboratories, Inc., West Grove, USA). Binding was determined by measurement of HRP activity in a standard colorimetric assay. EC₅₀ values were estimated by non-linear regression using GraphPad Prism software (San Diego, USA).

Binder | EC50
B1 | 33.6 nM
B2 | 9.6 nM
B3 | 0.54 nM
B5 | 18.2 nM
B6 | 1.1 nM
